# Where no end group is shown, it is not given here.
# T1: Aβ monomers on the SPR chip: biotinylated Aβ 11–28 (Homo sapiens (from His13), UniProt P05067, also: biotin, position not given here)
# T1 construct: amyloid-β peptide, residues 11-28; the methods name only 11–28; also called monomer Aβ chips
# T1 chain: EVHHQKLVFFAEDVGSNK
# B1: Crenezumab, fully humanized anti-Aβ monoclonal IgG4 (antibody, V domains shown)
# VH: EVQLVESGGGLVQPGGSLRLSCAASGFTFSSYGMSWVRQAPGKGLELVASINSNGGSTYYPDSVKGRFTISRDNAKNSLYLQMNSLRAEDTAVYYCASGDYWGQGTTVTVSS
# VL: DIVMTQSPLSLPVTPGEPASISCRSSQSLVYSNGDTYLHWYLQKPGQSPQLLIYKVSNRFSGVPDRFSGSGSGTDFTLKISRVEAEDVGVYYCSQSTHVPWTFGQGTKVEIK
# notes: crenezumab VH: as the VH of the heavy chain of m1 (PDB 5KNA / 5KMV) but without the T108L change; IgG4 heavy chain constant region; as the light chain of m1 (unaltered crenezumab light chain); IgG4; also called full-length IgG4; copies: 2 + 2
# Target: T1, Aβ monomers on the SPR chip: …
# Test: SPR; BIAcore T200, single-cycle kinetics; biotinylated Aβ (11–28 or oligomeric 1–42) captured on streptavidin-coupled CM5 chip (100–200 RU); antibody as analyte 0.8–500 nM in HBS-P pH 7.4, 0.15 M NaCl; one-to-one Langmuir model
# Settings: both partners purified
binder,measurement,value
B1,Kd,3 to 5 nM

# Source: publication PMC5171940, “Structure of Crenezumab Complex with Aβ Shows Loss of β-Hairpin” (Scientific Reports, 2016)
